Substitutions are numbered along the chain they refer to.
What was measured:
[1] = biological target: asialo-α1-acid glycoprotein (Galβ1,4GlcNAc-R)
[2] = biological target: asialofetuin (Galβ1,3GalNAc-Thr/Ser and Galβ1,4GlcNAc-R)
[3] = biological target: ovine submaxillary asialo-mucin (GalNAc-Thr/Ser) (ovine)
[4] = biological target: antifreeze glycoprotein (Galβ1,3GalNAc-Thr)
[5] = biological target: asialo-α1-acid glycoprotein (Galβ1,4GlcNAc-R); remark: listed apart in the source
ST3N = biological target: T1, ST3N (Rattus norvegicus, UniProt Q02734); assay: Acceptor specificity of ST3N (Table 4); conditions: acceptor 0.2 mM
T1 sequence (Q02734 29-374 limits assumed): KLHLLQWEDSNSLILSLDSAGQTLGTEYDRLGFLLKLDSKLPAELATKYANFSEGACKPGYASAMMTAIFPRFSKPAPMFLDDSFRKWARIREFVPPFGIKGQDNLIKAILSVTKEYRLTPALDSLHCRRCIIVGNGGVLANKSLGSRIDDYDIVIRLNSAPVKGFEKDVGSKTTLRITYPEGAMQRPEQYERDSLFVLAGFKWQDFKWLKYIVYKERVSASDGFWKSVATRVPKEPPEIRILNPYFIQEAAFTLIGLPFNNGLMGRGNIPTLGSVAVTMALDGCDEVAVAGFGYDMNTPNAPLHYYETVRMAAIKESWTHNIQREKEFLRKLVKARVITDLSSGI

human ST3N = biological target: T2, human ST3N (Homo sapiens, UniProt Q11203); assay: Acceptor specificity of soluble human ST3N (protein A fusion from COS-1 cells, on IgG Sepharose); conditions: acceptor 0.2 mM; relative to LNT
T2 sequence (Q11203 62-375): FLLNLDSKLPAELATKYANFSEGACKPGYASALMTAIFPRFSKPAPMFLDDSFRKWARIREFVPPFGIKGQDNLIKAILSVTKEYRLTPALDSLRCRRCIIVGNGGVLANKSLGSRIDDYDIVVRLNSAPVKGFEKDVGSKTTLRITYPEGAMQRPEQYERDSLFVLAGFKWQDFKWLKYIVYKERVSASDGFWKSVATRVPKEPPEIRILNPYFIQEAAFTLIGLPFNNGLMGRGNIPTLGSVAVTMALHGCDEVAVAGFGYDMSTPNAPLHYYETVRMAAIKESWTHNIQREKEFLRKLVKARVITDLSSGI

ST3O = biological target: T3, ST3O (Sus scrofa, UniProt Q02745); assay: Acceptor specificity of ST3O (Table 4); conditions: acceptor 0.2 mM
T3 sequence (Q02745 28-343 limits assumed): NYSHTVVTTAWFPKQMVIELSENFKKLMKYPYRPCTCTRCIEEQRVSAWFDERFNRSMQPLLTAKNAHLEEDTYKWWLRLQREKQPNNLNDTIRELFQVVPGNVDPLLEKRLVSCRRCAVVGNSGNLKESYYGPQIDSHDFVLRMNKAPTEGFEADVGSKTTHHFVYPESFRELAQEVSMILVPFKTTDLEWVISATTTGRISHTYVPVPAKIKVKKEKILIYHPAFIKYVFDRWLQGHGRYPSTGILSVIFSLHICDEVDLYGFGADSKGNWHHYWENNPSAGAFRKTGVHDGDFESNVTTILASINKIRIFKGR

rat ST3N = biological target: T4, rat ST3N (Rattus norvegicus, UniProt Q02734); assay: Acceptor specificity of soluble rat ST3N fusion protein (Table 3); conditions: acceptor 0.2 mM; relative to LNT
T4 sequence (Q02734 29-374 limits assumed): T1 sequence (Q02734 29-374 limits assumed)

[6] = biological target: [14C]NeuAc labeled α1-acid glycoprotein produced from the asialo-derivative using ST6N enzyme
[7] = biological target: [14C]NeuAc labeled α1-acid glycoprotein produced from the asialo-derivative using ST3 enzyme
[8] = biological target: [14C]NeuAc labeled α1-acid glycoprotein produced from the asialo-derivative using ST3N enzyme
[9] = tested on: acceptor substrate antifreeze glycoprotein (AFGP); assay: Sialyltransferase activity of purified porcine liver α2,3-0 sialyltransferase; type: biochemical; conditions: after third CDP-hexanolamine agarose column
acceptor substrate antifreeze glycoprotein (AFGP), sequence (as listed by the source): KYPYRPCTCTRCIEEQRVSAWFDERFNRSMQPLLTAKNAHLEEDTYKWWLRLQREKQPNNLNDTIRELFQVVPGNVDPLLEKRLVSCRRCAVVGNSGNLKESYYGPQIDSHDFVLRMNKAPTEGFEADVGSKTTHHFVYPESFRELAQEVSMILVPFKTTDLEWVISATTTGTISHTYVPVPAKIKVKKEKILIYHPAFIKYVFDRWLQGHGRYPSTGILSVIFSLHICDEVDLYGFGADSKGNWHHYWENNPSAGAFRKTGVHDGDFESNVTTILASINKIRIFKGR
From the text: FIG. 4 Purification of the α2,3-0 sialyltransferase on CDP-hexanolamine agarose (column III, CDP elution). […] In columns A and B elution of enzyme activity correlated predominantly with 48 kDa and a 45 kDa protein species, respectively (see inset, SDS-PAGE). These two species, form A and form B of the α2,3 sialyltransferase, had specific activities of 8-10 units/mg protein. The 48 kDA and 45 kDA species were blotted to a PVDF membrane and analyzed by NH2 -terminal sequencing.
The enzyme was purified from a porcine liver Triton X-100 extract by affinity chromatography on three successive columns of CDP-hexanolamineagarose. The elution profile from the first and third purification steps are shown in FIG. 3 and FIG. 4, respectively. […] These two peaks were separated by combining the indicated fractions into pools A and B, these two pools were subsequently found to be enriched in two different molecular weight forms of the α2,3-0 sialyltransferase.
The membranes were extracted three times with buffer (Conradt, H. S. et al., in Sialic Acids 1988 Proceedings of the Japanese-German Symposium on Sialic Acids (Schauer and Yamakawa, eds.) pp. 104-105, Verlag Wissenschaft and Bildung, Kiel [1988]) and the extract was passed over a 1.5 l CDP-hexanolamine agarose column (column 1) (16 umol/ml). After washing the column with 3 L buffer B, the column was eluted with a linear gradient of 0.05 to 1.0 M KCL (2.5 l×2.5 l) in buffer B. Fractions containing α2,3 sialyltransferase were combined into two pools A and B, representing the main part and the trailing end of the peak, respectively (see FIG. 3). The pools were dialysed against buffer B and subjected to another round of affinity chromatography on CDP-hexanolamine agarose (columns IIA and IIB). A 150 ml column was used for pool A and a 30 ml column was used for pool B; two preparations from column I (from total of 4 kg liver) were loaded on the same column in step II. […]

[10] = tested on: acceptor substrate antifreeze glycoprotein (AFGP); conditions: Rearick et al. 1979; cited from earlier work
[11] = biological target: T5, (Sus scrofa, UniProt Q02745); assay: Sialyltransferase activity in media of COS-1 cells transfected with sp-ST; conditions: 48 hours post-transfection, media concentrated
T5 sequence (Q02745 28-343 limits assumed): T3 sequence (Q02745 28-343 limits assumed)

[12] = tested on: sialidase from Newcastle disease virus; type: biochemical; conditions: product formed by the named enzyme, hydrolyzed with Newcastle disease virus sialidase

“soluble protein A/ST3 fusion (expression plasmid AZ3), human ST3 sialyltransferase (from UniProt P02976) (enzyme)” showed a Relative rate (%) of sialic acid transfer, acceptor 0.2 mM [1] of 51%, a Relative rate (%) of sialic acid transfer, acceptor 0.2 mM [2] of 92% and a Relative rate (%) of sialic acid transfer, acceptor 0.2 mM [3] of 3.8%. For the same molecule, the Relative rate (%) of sialic acid transfer, acceptor 0.2 mM [4] was 50%.

“signal peptide-ST (sp-ST), soluble form of porcine Galβ1,3GalNAc α2,3 sialyltransferase (pSVL-spST) (enzyme)” gave a Relative rate (%) of sialic acid transfer, acceptor 0.2 mM [1] of 0%, a Relative rate (%) of sialic acid transfer, acceptor 0.2 mM [2] of 26% and a Relative rate (%) of sialic acid transfer, acceptor 0.2 mM [3] of 5%. The Relative rate (%) of sialic acid transfer, acceptor 0.2 mM [4] was 57%.

Work on “soluble protein A/human ST3N fusion (expression plasmid A3NHP), human Galβ1,3(4)GlcNAc α2,3-sialyltransferase (from UniProt P02976) (enzyme)” yielded a Relative activity (%), acceptor 0.2 mM [5] of 14%.

For `CC(=O)N[C@H]1C(O)O[C@H](CO)[C@@H](O)[C@@H]1O[C@@H]1O[C@H](CO)[C@H](O)[C@H](O)[C@H]1O` (stereo partly shown) [Galβ1,3GlcNAc], the “Relative rate (%) ST3N” value (ST3N) was 49%, the “Relative activity (%) Human” value (human ST3N) was 48% and the “Relative rate (%) ST30” value (ST3O) was 2%. The “Relative activity (%) Rat” value (rat ST3N) was 49%.

Work on “sialidase from Newcastle disease virus (Oxford Glycosystems) (enzyme)” yielded a release of [14C]NeuAc from labeled glycoprotein (% of total 14C NeuAc released) [6] of 0, a release of [14C]NeuAc from labeled glycoprotein (% of total 14C NeuAc released) [7] of 83 and a release of [14C]NeuAc from labeled glycoprotein (% of total 14C NeuAc released) [8] of 82.

B1: Form B: 45 kDa molecular weight form of the porcine liver α2,3 sialyltransferase (protein)
chain: T3 sequence (Q02745 28-343 limits assumed) with R201T
In the case of B1, the specific activity [9] is given as 8-10 units/mg protein and the “catalytic activity (in words)” value [10] is given as “fully catalytically active”.

B2: sp-ST: fusion of insulin signal sequence, 9 linker amino acids and the catalytic domain of α2,3-0 sialyltransferase (protein)
chain: T3 sequence (Q02745 28-343 limits assumed) with R201T
For B2, the “sialyltransferase activity in media” value [11] was “contained milliunits/ml of the sialyltransferase”.

B3: rat Galβ1,3(4)GlcNAc α2,3 sialyltransferase (protein)
chain: T1 sequence (Q02734 29-374 limits assumed) with W226S, G257R
For B3, the “total [14C]NeuAc released from labeled α1-acid glycoprotein product” value (“total [14C]NeuAc released” for short) [12] was 82%.

B4: ST3: human sialyltransferase of SEQ. ID. NO:12; β-galactoside α2,3-sialyltransferase (protein)
chain: MCPAGWKLLAMLALVLVVMVWYSISREDRYIEPFYFPIPEKKEPCLQGEAESKASKLFGNYSRDQPIFLRLEDYFWVKTPSAYELPYGTKGSEDLLLRVLAITSSSIPKNIQSLRCRRCVVVGNGHRLRNSSLGDAINKYDVVIRLNNAPVAGYEGDVGSKTTMRLFYPESAHFDPKVENNPDTLLVLVAFKAMDFHWIETILSDKKRVRKGFWKQPPLIWDVNPKQIRILNPFFMEIAADKLLSLPMQQPRKIKQKPTTGLLAITLALHLCDLVHIAGFGYPDAYNKKQTIHYYEQITLKSMAGSGHNVSQEALAIKRMLEMGAIKNLTSF
For B4, the “total [14C]NeuAc released” value [12] was 83%.

B5: rat Galβ1,4GlcNAc α2,6-sialyltransferase (protein)
chain: SKQDPKEDIPILSYHRVTAKVKPQPSFQVWDKDSTYSKLNPRLLKIWRNYLNMNKYKVSYKGPGPGVKFSVEALRCHLRDHVNVSMIEATDFPFNTTEWEGYLPKENFRTKVGPWQRCAVVSSAGSLKNSQLGREIDNHDAVLRFNGAPTDNFQQDVGSKTTIRLMNSQLVTTEKRFLKDSLYTEGILIVWDPSVYHADIPKWYQKPDYNFFETYKSYRRLDPSQPFYILKPQMPWELWDIIQEISADLIQPNPPSSGMLGIIIMMTLCDQVDIYEFLPSKRKTDVCYYHQKFFDSACTMGAYHPLLFEKNMVKHLNEGTDEDIYLFGKATLSGFRNIRC
For B5, the “total [14C]NeuAc released” value [12] was 0%.

Reference: patent US5962294A, “Compositions and methods for the identification and synthesis of sialyltransferases” (The Regents of the University of California, priority 1993, dated 1999)
